Among the data in PMC6463701 are pKa and Kd values, retold here.

Sequence of E6AP C-lobe (residues 741-852) (Q05086 764-875): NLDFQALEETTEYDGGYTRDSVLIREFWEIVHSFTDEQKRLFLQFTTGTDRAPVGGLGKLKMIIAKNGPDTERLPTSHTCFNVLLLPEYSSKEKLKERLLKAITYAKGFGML
Sequence of E6AP N-lobe (isolated) (Q05086 518-875): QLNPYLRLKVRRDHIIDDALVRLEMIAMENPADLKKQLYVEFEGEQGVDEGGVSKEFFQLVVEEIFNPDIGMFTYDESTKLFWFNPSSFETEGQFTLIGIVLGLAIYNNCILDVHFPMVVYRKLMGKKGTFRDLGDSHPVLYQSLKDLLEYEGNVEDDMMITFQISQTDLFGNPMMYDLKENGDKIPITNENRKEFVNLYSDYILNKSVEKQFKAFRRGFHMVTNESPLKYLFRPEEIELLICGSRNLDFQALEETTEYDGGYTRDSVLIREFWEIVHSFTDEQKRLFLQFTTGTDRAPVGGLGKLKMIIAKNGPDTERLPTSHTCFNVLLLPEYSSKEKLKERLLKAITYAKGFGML
Sequence of E6AP HECT domain (residues 495-852), wild type (Q05086 518-875): as above

The first data set concerns the target Cys820 (UniProt position 843, PTSHTCFNVLL). Nature of the data set: chemical modification (stopped-flow kinetics, UV-vis). The note with it: 10 °C; 100 mM NaCl; 20 mM sodium acetate, 20 mM sodium phosphate, 20 mM Tris or 20 mM CAPSO (depending on pH); 1 mM EDTA; isolated C-lobe, free (no ubiquitin), reduced thiol, folded.
As a reminder, the pKa is the pH at which an ionisable group is half protonated. The low end stands for a group that gives up its proton readily, the high end for a group that holds its proton tightly. In turn, “E6AP (UBE3A) HECT domain C-lobe, Delta4 variant (Homo sapiens; del849-852)” yielded a pKa of 8.7 ± 0.1.

“E6AP (UBE3A) HECT domain C-lobe, wild type (Homo sapiens)”: the pKa came to 8.7 ± 0.1.

The next data set concerns the target fluorophore-labeled ubiquitin G76C (BODIPY TMR C5-maleimide). The data set can be described thus: fluorescence polarisation; 50 nM BODIPY TMR-labelled ubiquitin G76C, E6AP construct titrated (C-lobe 0-500 μM); room temperature; 20 mM HEPES pH 7.2, 200 mM NaCl, 1 mM TCEP, 0.01% Triton X-100; single-site binding model; apparent KD.
Settings: not given
(In general: Fluorescence polarisation rises when a labelled molecule tumbles more slowly, as on binding a larger partner.)
“E6AP HECT domain F665D (from UniProt Q05086-2 495-852) (domain or fragment)”: the Kd came out at 120 µM. For the substance “E6AP HECT domain I564D/F583D (from UniProt Q05086-2 495-852) (domain or fragment)”, the Kd amounted to 110 µM. On to “E6AP HECT domain (residues 495-852), wild type (from UniProt Q05086-2 495-852) (domain or fragment)”, for which the Kd is 83 µM. The same measure, in the same setting: for “E6AP C-lobe (residues 741-852) (from UniProt Q05086-2 741-852) (domain or fragment)” the value was 400 µM; for “E6AP N-lobe (isolated) (from UniProt Q05086-2 495-852) (domain or fragment)”, 70 µM.
